Measurements published in patent US20260139017A1, “COMPOSITIONS AND METHODS USING REELIN IN ALZHEIMER'S DISEASE” (The General Hospital Corporation, priority 2022, published 2026).
“Also recorded” adds a separate entry of the source.

T1: NRP1 (Homo sapiens, UniProt O14786)
T1 construct: purchased R&D 3870-N1-025
T1 sequence (O14786 22-644 isoform O14786-2 limits assumed): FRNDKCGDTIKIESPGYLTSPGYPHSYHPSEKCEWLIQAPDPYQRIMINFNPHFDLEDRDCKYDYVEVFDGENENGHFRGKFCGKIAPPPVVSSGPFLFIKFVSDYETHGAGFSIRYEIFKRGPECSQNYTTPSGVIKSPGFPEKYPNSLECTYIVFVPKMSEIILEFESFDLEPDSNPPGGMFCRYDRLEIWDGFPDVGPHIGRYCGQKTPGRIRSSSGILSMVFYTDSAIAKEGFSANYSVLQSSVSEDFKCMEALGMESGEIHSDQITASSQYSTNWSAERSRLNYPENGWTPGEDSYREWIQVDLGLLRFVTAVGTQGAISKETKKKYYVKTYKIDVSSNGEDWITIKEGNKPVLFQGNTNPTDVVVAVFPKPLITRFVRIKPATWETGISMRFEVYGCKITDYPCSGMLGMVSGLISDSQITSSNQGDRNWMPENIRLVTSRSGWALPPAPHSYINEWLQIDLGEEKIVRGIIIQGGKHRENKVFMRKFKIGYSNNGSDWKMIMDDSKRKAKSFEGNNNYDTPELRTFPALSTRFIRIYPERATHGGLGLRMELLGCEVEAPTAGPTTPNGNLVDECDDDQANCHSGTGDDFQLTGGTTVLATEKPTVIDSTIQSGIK


How the values were obtained:
pDAB1 (Tyr232) [1] = assay: HRECs treated 5 minutes with recombinant mini-RELN, pDAB1 western blot; type: cell-based, human; details: 5 minutes, 4 ug/mL recombinant protein
Procedure: For in vitro screening of constructs using recombinant mini-RELN on HRECs, the cells were cultured in EBM-2 media enriched with EGM-2 Single Quots (Lonza) at 37° C. and 5% CO2 and experimentally tested at passage 7. 24 h prior experiment, cells were plated on a 6-well plate at 500,000 cells/mL. Two hours before the experiment, the cells were washed with PBS to remove residual growth media and then incubated with a starving media including EBM-2, 1% GlutaMax+0.2% Normicin. Treatments was conducted using recombinant mini RELN constructs obtained from Innovagen and Recombinant Mouse Reelin Protein from R&D systems (3820-MR-025/CF). Each treatment was incubated for 5 minutes at 4 ug/mL concentration and cells were subsequently harvested in lysis buffer was applied constituted of RIPA (Cell signaling), proteases inhibitors (cOmplete™, Mini, EDTA-free Protease Inhibitor Cocktail, Roche), phosphatases inhibitors (PhosSTOP, Roche), 1 μL of proteasome inhibitor MG-132 10 mM, 1% Triton X 100. The lysates were scraped and centrifugated at 15000 rpm for 10 minutes at 4° C. Total protein levels were quantified via BCA assay. For Western Blotting, 3.5 ug protein homogenates were prepared under reducing and denaturing conditions using Laemmli buffer enriched with 10 mM DTT and 5 min boiling. Samples were electrophoretically separated in a 4-20% Gel at 90V and protein transferred to a PVDF membrane using iBlot™ 2 Dry Blotting System. The membrane was blocked using Intercept® (TBS) Blocking Buffer for 2 hours. We detected pDAB1 (Tyr232; 1:1000, rabbit, #3325 Cell signaling), and total protein staining (Licor). Antibodies were diluted using Intercept® (TBS) Blocking Buffer and incubated overnight at 4C under gentle shaking. Prior secondary antibody incubation, membranes were washed 2 times using TBS-T for 10 minutes. As secondary antibodies we used IR Dye 800n CW Goat-anti-Rabbit (925-32211, Licor) diluted 1:10000 in blocking buffer for 1 h at room temperature under gentle shaking. Membranes were washed three times with TBST-T prior IR detection using Odyssey imager. To quantify the results, each band was quantified using ImageJ and data expressed as pDABL:total protein ratio normalized to the control.

pDAB1 (Tyr232) [2] = assay: HRECs treated 5 minutes with HEK 293T-derived mini-RELN media, pDAB1 western blot; type: cell-based, human; details: HEK 293T-derived media 1:1, 1:4, 1:14, 5 minutes
Procedure: The effect of in vitro treatment with RELN or miniRELN protein was also evaluated. HRECs were cultured in EBM-2 media enriched with EGM-2 Single Quots (Lonza) at 37° C. and 5% CO2 and experimentally tested at passage 7. 24 h prior experiment, cells were plated on a 6-well plate at 500,000 cells/mL. Two hours before the experiment, the cells were washed with PBS to remove residual growth media and then incubated with a starving media including EBM-2, 1% GlutaMax+0,2% Normicin. Treatments was conducted using media derived from HEK 293T cells transiently transfected for 24 h with different mini-RELN constructs in the presence of Lipofectamine 2000. HEK-derived Lipofectamine2000-media was used as negative control. HEK 293T-derived media was tested at different ratio 1:1, 1:4, and 1:14 (Transfected media:Starving media). Each treatment was incubated for 5 minutes and cells were subsequently harvested in lysis buffer was applied constituted of RIPA (Cell signaling), proteases inhibitors (cOmplete™, Mini, EDTA-free Protease Inhibitor Cocktail, Roche), phosphatases inhibitors (PhosSTOP, Roche), 1 μL of proteasome inhibitor MG-132 10 mM, 1% Triton X 100. The lysates were scraped and centrifugated at 15000 rpm for 10 minutes at 4° C. Total protein levels were quantified via BCA assay. […] We detected pDAB1 (Tyr232; 1:1000, rabbit, #3325 Cell signaling), and Beta actin (1:5000, mouse, #66009-1-Ig, Proteintech. Antibodies were diluted using Intercept® (TBS) Blocking Buffer and incubated overnight at 4C under gentle shaking. Prior secondary antibody incubation, membranes were washes 2 times using TBS-T for 10 minutes. As secondary antibodies we used IR Dye 800n CW Goat-anti-Rabbit (925-32211, Licor) and IR Dye 680 CW Goat-anti-Mouse (925-68070, Licor) both diluted 1:10000 in blocking buffer for 1 h at room temperature under gentle shaking. Membranes were washed three times with TBS-T prior IR detection using Odyssey imager. To quantify the results, each band was quantified using ImageJ and data expressed as pDAB1:βActin ratio normalized to the control. […]

SH-SY5Y cells = assay: Lactate dehydrogenase assay in SH-SY5Y cells treated with oligomeric Tau; type: cell-based
Procedure: A lactate dehydrogenase assay was performed in SH-SY5Y cells treated 24 h with pre-formed oligomeric Tau (oTau) either alone or in the presence of C-term RELN WT (184I). The lactate dehydrogenase assay was performed as follows. 100 k neuroblastoma (SH-SY5Y, ATCC) cells/well were plated in 96-well TC treated plates in growth media (DMEM/F12, Gibco, 10% heat-inactivated FBS, R&D, 200 ug normocin) and allowed to attach and grow overnight. Next day, test compounds were allowed to thaw on wet ice. Phenol-free and serum free DMEM/F12 no serum no antibiotic media was warmed and a 50 mL aliquot was sterile filtered (0.22 um) as test media. In TC cabinet, thawed test compounds were mixed via pipetting then added to final concentration for each test condition in filtered test media and mixed through pipetting. Test conditions were allowed to pre-incubate for 15 mins at RT in TC cabinet. Wells were gently aspirated and gently washed with 200 uL prewarmed Test media, then gently aspirated and 100 μL of test conditions were added and allowed to incubate in TC incubator at 5% CO2 for 21 hrs. LDH performed using Roche kit according to manufacturer's protocol.

NRP1 = target: T1, NRP1; assay: Bio-layer interferometry (BLI) of CTR-RELN-NRP-1 interactions; type: binding; details: immobilized biotinylated NRP1
Procedure: (§1) Bio-layer interferometry (BLI) was additionally used to assess NRP1-protein kinetics at 30° C. and 1000 rpm agitation. 1 mg/mL NRP1 (R&D 3870-N1-025) was biotinylated at a 1:2 molar ratio, desalted, and immobilized on the SA biosensor tip (Pall ForteBio) surface. This was followed by 1) 180 seconds baseline buffer diluent, 2) loading of the ligand (NRP1), 3) 180 seconds baseline buffer diluent, 4) 240 seconds association (analyte), and 5) 300 seconds disassociation in assay buffer. Assay buffer: SD Buffer (pH7.4 PBS, 0.05% tween20, 0.01% BSA).
The experimental data were fit with the 1:1 binding model and analyzed with global fitting using Octet Data Analysis software to calculate KD.
as §1, with “was” for “was additionally”, “agitation using previously published methods.” for “agitation.”

Molecule	pDAB1 levels (pDAB1 (Tyr232) [1])	pDAB1 / Dab1 signaling activation (pDAB1 (Tyr232) [2])	cytotoxicity of construct (LDH) (SH-SY5Y cells)	oligomeric Tau-induced cytotoxicity (LDH) (SH-SY5Y cells; oTau with construct)	ka (NRP1) [M⁻¹ s⁻¹]	kd (NRP1) [s⁻¹]
IL2ss-6xHis-hReelin R3-R6 CT-H3447R (protein) MYRMQLLSCIALSLALVTNSGGHHHHHHGGSRFSSTAPVLLQYSHDAGMSWFLVKEGCYPASAGKGCEGNSRELSEPTMYHTGDFEEWTRITIVIPRSLASSKTRFRWIQESSSQKNVPPFGLDGVYISEPCPSYCSGHGDCISGVCFCDLGYTAAQGTCVSNVPNHNEMFDRFEGKLSPLWYKITGAQVGTGCGTLNDGKSLYFNGPGKREARTVPLDTRNIRLVQFYIQIGSKTSGITCIKPRTRNEGLIVQYSNDNGILWHLLRELDFMSFLEPQIISIDLPQDAKTPATAFRWWQPQHGKHSAQWALDDVLIGMNDSSQTGFQDKFDGSIGGGTLDSRKWLLHPGGTKMPVCGSTGDALVFIEKASTRYVVSTDVAVNEDSFLQIDFAVSCSVTDSCYAIELEYSVDLGLSWHPLVRDCLPTNVECSRYHLQRILVSDTFNKWTRITLPLPPYTRSQATRFRWHQPAPFDKQQTWAIDNVYIGDGCIDMCSGHGRCIQGNCVCDEQWGGLYCDDPETSLPTQLKDNFNRAPSSQNWLTVNGGKLSTVCGAVASGMALHFSGGCSRLLVTVDLNLTNAEFIQFYFMYGCLITPNNRNQGVLLEYSVNGGITWNLLMEIFYDQYSTGGSGGSTRKQNYMMNFSRQHGLRRFYNRRRRSLRRYP	increased pDAB1 levels	efficacy	–	–	–	–
pfcn-huIgG2-C-termH3447WT (protein) MYRMQLLSCIALSLALVTNSAPLERKSSVECPPCPAPPVAGPSVFLFPPKPKDTLMISRTPEVTCVVVDVSHEDPEVQFNWYVDGVEVHNAKTKPREEQFNSTFRVVSVLTVVHQDWLNGKEYKCKVSNKGLPAPIEKTISKTKGQPREPQVYTLPPSREEMTKNQVSLTCLVKGFYPSDIAVEWESNGQPENNYKTTPPMLDSDGSFFLYSKLTVDKSRWQQGNVFSCSVMHEALHNHYTQKSLSLSPGARTSTRKQNYMMNFSRQHGLRHFYNRRRRSLRRYP	–	–	did not show any cytotoxicity	reduction of oTau-derived cytotoxicity; also recorded: Reduced oligomeric Tau-induced cytotoxicity	9400	0.00573
